These results are taken from the RNAGym collection of RNA variant scans (doi:10.1093/molbev/msab373).

B1: Azoarcus group I ribozyme (parent)
chain: GUGCCUUGCGCCGGGAAACCACGCAAGGGAUGGUGUCAAAUUCGGCGAAACCUAAGCGCCCGCCCGGGCGUAUGGCAACGCCGAGCCAAGCUUCGGCGCCUGCGCCGAUGAAGGUGUAGAGACUAGACGGCACCCACCUAAGGCAAACGCUAUGGUGAAGGCAUAGUCCAGGGAGUGGCGAAAGUCACACAAACCGG

The series covers variants of B1. Nature of the series: reverse-splicing fitness (ratio to wild type); higher = more active; in vitro selection; Mg2+ level not given. In short, it runs like this:
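An in vitro group I ribozyme library with randomized positions was T7-transcribed and gel-purified. In triplicate, 10 pmol RNA in EPPS pH 7.5 was reacted with 50 pmoles of a 30-nt RNA substrate for 1 h at 37 °C across several added MgCl2 levels (1–48 mM), then stopped with EDTA. Products were reverse transcribed from a substrate-complementary primer, PCR-amplified and sequenced (HiSeq 4000). Fitness is a variant's read proportion after selection over that before, normalised to wild type.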
C82U A120C A145C C150A C169G U176C: the reverse-splicing fitness was 0.00772. For A111C A145C C150G C169A U176A the value was 0.00774; for C82A A120U A145G C150G C169A, 0.0097. The figure for A111U A145U C169U is 0.109; for C82U A111U A120U A145G C150U C169A U176G it is 0.00269. The figure for A111C A120C A145G C169A is 0.0109; for C82G A120G C150G C169A it is 0.00981. On to C82U A111U A145U C150G C169U U176A, for which the reverse-splicing fitness was determined as 0.00893. With A111G A120G C150G U176G, the reverse-splicing fitness was determined as 0.00356. In the case of C82A A120G A145U U176G, the reverse-splicing fitness was determined as 0.00426. On to C82U C150U C169U U176G, for which the reverse-splicing fitness is 0.00558. The figure for C82A A120C A145C C150G C169U is 0.00982; for A111U A145U C169A U176G it is 0.00631; for A111C A120U A145G C150U C169G U176G it is 0.00262. For A111U A120C A145C C150G C169G the value was 0.00716; for C82G A120G A145G C150G C169U, 0.0109. For C82A A120C A145G C150A C169U U176A the value was 0.0177; for C82U A120U C169G U176A, 0.00252; for C82A A111C A120U A145G C150G C169U U176A, 0.00855.

Take C82A A111G A120C A145U C150U C169G U176C: the reverse-splicing fitness stood at 0.0191. The figure for C82G C150A C169A U176G is 0.00584; for A111G A120U A145U C150U U176A it is 0.265; for C82A A111G A120C C150U C169G U176A it is 0.0173. For C82G A120C C169U U176A the value was 0.019. For C82U A120U A145C C150A C169U U176A the value was 0.00218. Consider C82U A111G A145G C150U U176C, for which the reverse-splicing fitness came to 0.193.

For the variant C82A A111G A120G A145C C169A U176C, the reverse-splicing fitness was 0.00752.

On to C82G A111U A120U A145G U176G, for which the reverse-splicing fitness was found to be 0.00338. For A111U A120U A145G C150G U176A the value was 0.01; for A111G A120C, 0.806; for C82U A120U A145C C150G U176A, 0.0055. The figure for C82A A111U C150A C169A U176G is 0.00811; for A111U A145C C150A U176A it is 0.103. The figure for C82A A111G A120C A145C C150U C169U U176A is 0.0132; for C82A A111G A120G A145C C150U C169A it is 0.00986; for C82A A111U A120C C169U U176G it is 0.00659.

With C82U A111C A145U C150G C169U, the reverse-splicing fitness turned out to be 0.00877. The figure for A111U A120C C169G is 0.0098; for C82U A111C A120U C169G U176G it is 0.00177. The figure for C82U A111U A120G A145U C150G C169A is 0.00759; for C82A A120G A145C U176C it is 0.0111.

In the case of A111U C150U C169G U176G, the reverse-splicing fitness is 0.00719. A120G A145U C150U C169G U176C: the reverse-splicing fitness turned out to be 0.207.

As to A111U A120G C150U C169G U176G, the reverse-splicing fitness is 0.00503. For C82U A111U A145U C150A the value was 0.0273. The figure for A120U C150G C169A U176C is 0.00332.

C82A A111U A120G A145G C150U U176A: the reverse-splicing fitness stood at 0.00963. Regarding C82U A111G A145C C150U C169G, the reverse-splicing fitness amounted to 0.00755.

Turning to A111U A120C A145G C150U C169G U176A, the reverse-splicing fitness stood at 0.0125. The figure for A111U A120C A145G C150U C169G U176G is 0.00528.

Regarding A120G A145C C150A C169A U176A, the reverse-splicing fitness stood at 0.0162.

For C82A A120G A145C C150A C169U U176C, the reverse-splicing fitness came to 0.0107. Turning to C82U A111C A145G C150U C169U U176A, the reverse-splicing fitness is 0.0144. For C82G A145C C150U C169A U176C the value was 0.00579; for A120G A145U C150A C169G U176A, 0.0455.

Take A120U A145C C150G U176C: the reverse-splicing fitness came out at 0.121. The figure for A111C A120C A145U C150U C169G is 0.00917; for C82U A111C A145C C150U U176C it is 0.0358. Take A111U A120C C150U C169A U176G: the reverse-splicing fitness is 0.00509. For A111U A120G A145U C150G C169G U176G the value was 0.00439; for A111C A120U A145C C150U C169G, 0.0128. Take C82U A120U A145U U176A: the reverse-splicing fitness came to 0.0411. The figure for C82U A120G A145U C150A U176C is 0.0109. The figure for C82A A111G A145U C150U C169G U176C is 0.015; for C82A A111G A120C A145C C150A C169G U176G it is 0.00763; for A111G C150U C169G U176G it is 0.00579. For the variant C82U A111G A120G C150G C169A U176G, the reverse-splicing fitness amounted to 0.00628. The figure for C82A A120C A145G C169A U176G is 0.00473; for C82A A111C A120U A145U C150A C169G U176C it is 0.00377. Regarding C82G A111U A120C C169U U176A, the reverse-splicing fitness is 0.0163.

On to C82U A111U A120G C150G C169G U176A, for which the reverse-splicing fitness came out at 0.00605. As to C82G A120G A145C C169G U176G, the reverse-splicing fitness amounted to 0.00393. For A111G A120G A145C C150U the value was 0.0745. For C82A A111G A120C U176G the value was 0.00892; for A111G A120G A145G C150U C169G, 0.255. As for A111G A120G A145G C150U C169U, the reverse-splicing fitness was determined as 0.2. On to C82A A111U A120G A145G C150A U176A, for which the reverse-splicing fitness was 0.0111.

C82G A111U A145U C150A C169U U176C: the reverse-splicing fitness was 0.0129.

Regarding A111C A145U U176G, the reverse-splicing fitness stood at 0.276. For C82G A111G A120C C150G C169A the value was 0.00976; for C82G A111G A120G A145U C150A U176A, 0.014. Regarding C82U A111U A120C C150U C169A U176A, the reverse-splicing fitness came to 0.015. Consider A145U C169G U176C, for which the reverse-splicing fitness was found to be 0.133.
